This data set can be described thus: Phase 1b safety and tolerability of HBI-8000 combined with nivolumab (DLTs, TEAEs). The data set is classed as in vivo. How it is done: The present example, was a Phase Ib/2 open-label dose finding study for HBI-8000 (also referred to in the art as “chidamide” or “tucidinostat” and also referred to herein as a compound of formula I) in combination with nivolumab in patients with advanced solid tumors, including melanoma, RCC (renal cell carcinoma), and NSCLC (non-small cell lung cancer). This study was conducted in accordance with Good Clinical Practice guidelines and the Declaration of Helsinki and with assurance/approval from the US Department of Health and Human Services; the protocol was approved by the institutional review boards or ethics committees of all participating sites. All patients provided written informed consent to participate before enrollment. […]
HBI-8000 at three dose levels (20 mg, 30 mg, and 40 mg) given orally twice a week (BIW) were evaluated. Doses were taken approximate 30 minutes after a meal. The starting dose (20 mg) was selected based on pharmacokinetic profiles established for monotherapy in Japanese patients with T-cell lymphoma.
The decision to escalate the dose was based on the conventional 3+3 design and observed incidences of dose-limiting toxicities (DLTs). Each treatment cycle was defined as 28 days. […] Subjects experiencing DLT within the first two weeks after having received 100% of assigned dose of HBI-8000 are also evaluable for DLT. Unacceptable toxicities were defined as grade 3 or higher non-hematologic and hematologic toxicities with clinical complications. Unacceptable toxicities observed over the first 28 days following HBI-8000 administration were considered as DLTs. […] HBI-8000 administration continued until disease progression or unacceptable toxicity was observed. The efficacy of the combination was further evaluated in an expanded cohort of selected patient populations at RP2D based on an objective response rate according to Response Evaluation Criteria in Solid Tumors (RECIST) version 1.1 criteria, progression-free survival, and duration of responses.
Safety evaluations included physical examinations, vital signs, ECGs, ECOG performance status, and laboratory tests.
Statistical analyses of safety, tolerability, and anti-tumor activity were primarily descriptive in nature. Toxicities were tabulated by type and grade. The safety population included all patients who received ≥1 dose of HBI-8000 and nivolumab. Continuous variables were summarized using descriptive statistics and categorical variables were summarized with number and percentage at each category. Pharmacokinetic parameters were derived using noncompartmental methods with Phoenix® WinNonlin® Version 6.4 (Certara, L. P., Princeton, NJ, USA).

Setting [1] is: 20 mg HBI-8000 BIW + nivolumab, N = 3.
Where [2] appears, read: 30 mg HBI-8000 BIW + nivolumab, N = 7.
Where [3] appears, read: 40 mg HBI-8000 BIW + nivolumab, N = 7.

The values that follow come from patent US20240252474A1, “METHODS AND COMPOSITIONS COMPRISING A CARDIO-TOLERATED HDAC INHIBITOR” (HUYABIO International, LLC, priority 2023, published 2024).

In the case of “Nivolumab: fully human monoclonal antibody directed against PD-1 (marketed as OPDIVO) [reference compound]”, under setting [1], the “Diarrhoea, Related Nivo, Any G” value is listed as 1 (33) n (%); the “SAE related to Nivolumab alone, number of subjects” value (from here on “SAE related to Nivolumab alone”) stood at 1 n; the “TEAE related to Nivolumab alone, number of subjects” value (from here on “TEAE related to Nivolumab alone”) is listed as 2 n; the “TEAE resulting in discontinuation of Nivo alone, number of subjects” value (shortened to “TEAE resulting in discontinuation”) is listed as 1 n. Under setting [1], the “Weight decreased, Related Nivo, Any G” value is 1 (33) n (%). Under setting [2], the “Back pain, Related Nivo, Any G” value is 2 (29) n (%); the “Dyspnoea, Related Nivo, Any G” value was 1 (14) n (%); the “Fall, Related Nivo, Any G” value is on record as 1 (14) n (%); the “Hypoxia, Related Nivo, Any G” value was 1 (14) n (%). Under setting [2], the “Lipase increased, Related Nivo, Any G” value is on record as 1 (14) n (%); the “SAE related to Nivolumab alone” value came to 2 n; the “TEAE related to Nivolumab alone” value was 6 n; the “TEAE resulting in discontinuation” value came out at 4 n. For the same substance, under setting [3], the “Diarrhoea, Related Nivo, Any G” value is 1 (14) n (%); the “SAE related to Nivolumab alone” value worked out at 1 n; the “TEAE related to Nivolumab alone” value is 2 n; the “TEAE resulting in discontinuation” value is listed as 2 n. For the setting “Total, all dose levels, N = 17”, the “SAE related to Nivolumab alone” value worked out at 4 n; the “TEAE related to Nivolumab alone” value came to 10 n; the “TEAE resulting in discontinuation” value came out at 7 n.
